The target in this data set is His-DDX39B (UniProt Q13838 1-428). The data set can be described thus: EMSA; 0-300 ng protein; bound more than -1A; EMSA: bacterially expressed DDX39B, 32P probes, non-denaturing 5% acrylamide gel; binding buffer, salt, pH and temperature not given. Pull-down: U87 nuclear extract pre-cleared with non-specific biotin DNA, 2 h with probe. The settings on record: protein: recombinant; tags: N-terminal His (pET-45b, 5' polyhistidine); label: 32P (T4 PNK); blunt.
His-DDX39B, sequence (Q13838 whole entry): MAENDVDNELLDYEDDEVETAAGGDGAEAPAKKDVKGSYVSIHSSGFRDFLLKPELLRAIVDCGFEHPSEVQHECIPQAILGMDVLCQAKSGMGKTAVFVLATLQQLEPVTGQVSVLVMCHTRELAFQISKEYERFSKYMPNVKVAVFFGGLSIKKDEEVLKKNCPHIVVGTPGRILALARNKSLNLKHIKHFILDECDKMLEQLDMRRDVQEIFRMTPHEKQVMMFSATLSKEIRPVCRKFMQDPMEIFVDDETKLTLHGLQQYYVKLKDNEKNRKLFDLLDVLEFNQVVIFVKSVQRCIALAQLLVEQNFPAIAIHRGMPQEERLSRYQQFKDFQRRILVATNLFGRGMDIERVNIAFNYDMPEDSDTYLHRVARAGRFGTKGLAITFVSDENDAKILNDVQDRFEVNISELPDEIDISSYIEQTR

B1: -1C kB probe (dsDNA)
DNA 1: TCGAGTTAGATGGGGACTTTCCAGGCAC
DNA 2: GTGCCTGGAAAGTCCCCATCTAACTCGA
On to B1, for which the binding result is recorded as “binds”.

Values taken from article PMC7093963, “DDX39B interacts with the pattern recognition receptor pathway to inhibit NF-κB and sensitize to alkylating chemotherapy”.
